Consider 14 sequences from a protein production outcome set (Wang et al. 2014).

The data set in a line: label from the status in PepcDB records.
“MEIVYVYVKKRSEFGKQCNFSDRQAELNIDISPNPELAALYVERNPVDTGIQCSASMSEHEANTERFEMENCGVNHVEGGWPKDVNPQELEQTIRFRKKVEKDENYINAVMQLGSIMEHCIKQNNAIDIYEEYFDDEEAVEVTEEAPSAKTINVFRDPQEIKRTATHLSWHPDGNKKLAVAYSCLQFQRSPMGMSHDSYIWDLENPNRPEIALKPSSPLITLEYNPKDSHVLLGGCYNGQIACWDTRKGSLVAELSTIEFSHRDPVYGTIWLQSKTGTECFSASTDGQVMWWDIRKISEPTEVVIMDITRKEQLENALGAISLEFESTLETPFQMGRGLGCILSRRPELKQQNEKLEGKPLTLPSHHRVPVRLGFYPCFPTNKRGLGDTCRSWLSPSSWAQGTKLRLSVLVANAVEPVTAWAAFTHMQSLHTQEHTVSTLGRFYFMYKQISKILTRTLTGASSVLKVCDDPLFCLRVQDTGCLIACGSELGTTTLLEVSSSLSTLQRNERNIASSIFERETRREKILEARHREMRLKEKGKAEGRDDDQKEEETALDLDELVNKAEEEFFEVIFAELKRKEAEALKKKPKPKKASIEVEGEDELEDIAGEEEESGIIMGEDTGEDDMDEKNEGGAP”: the protein production entry is recorded as “failed”.

Turning to “MEKADIEAIFARSRFISAMNLEILDIDHAGSRFSVRMPLQDTYERGAPGTKQFHGGALAALIDVVGDFAIGMLVGGGVPTMNLRIDYLRPAVGDYVDGVAVVRKAGKSAAVVDIDILCPAGKLVAIGRGTYVPITGLEHHHHHH”, the protein production result was “failed”. Turning to “MEKAMPESFVVRREAHLAAPPAAVFALMTDPEKILRWMGTEAEVEPEPGGLYLVNVTGARFARGSFREVVPVHRLAYSFGWDGSEVVPPGSSLVEIDLIEQGGGTLLRLTHSGLPSAEQCAGHEEGWAHYLGRLTEVAAGRDPGLEHHHHHH”, the protein production result is listed as “failed”. Turning to “MEKFLTTTYKELNSSMYKFSKGLTLVLFSLALSACSSSPEDNDIAAKTSPDELYSQARTSMELGNYSKAVRSLEALDSRFPFGPHKTQVQLDLIYAYYKMDDVASGIANIDRFIRLNPTHPNIDYVYYMRGLVNMQADSYLFHDMLNIDRTDRDPKNAQDAFKDFDRLIKTYPNSKYAADAQKRMLSLKNRLAKYSIQVAEYYIKMNAWSAAAVRAQSVLETYPGTPSTERALEIMAEAYGELGQNQLKQNVLMVMQANFPNNEILSN”, the protein production entry was “failed”. The value for “MEKIERLRSAFDEAGIDGILLTNEHSRRYMANFTGTAGVVLISKKRAQFITDFRYVEQASKQAVGYEIVQHAGLIIDEVAKQVKELGIQKLGFEQDTLTYSSYSAHKEAIDAEFIPTSGLVEKLRLIKTDSEIKILKEAAQIADAAFEHILSFIRPGVSEIEVSNELEFFMRKQGATSSSFDIIVASGLRSALPHGVASEKVIETGDFVTLDFGAYYKGYCSDITRTIAVGEPSDKLKEIYNIVLEAQLRGVNGIKAGLTGREADALTRDYITEKGYGEYFGHSTGHGIGLEIHEAPGLAFRSDTVLEPGMAVTVEPGIYIPGIGGVRIEDDIIVTSEGNEVITKSPKELIIL” was “not failed”. On to “MEKIGETMAKLGQNTRVNSDQLIQTILADPEVASFISQHHLSQEQINLSLSKFNQFLVERQKYQLKDPSYIAKGYQPILAMNEGYADVSYLETKELVEAQKQAAISERIQLVSLPKSYRHIHLSDIDVNNASRMEAFSAILDFVEQYPSAEQKGLYLYGDMGIGKSYLLAAMAHELSEKKGVSTTLLHFPSFAIDVKNAISNGSVKEEIDAVKNVPVLILDDIGAEQATSWVRDEVLQVILQYRMLEELPTFFTSNYSFADLERKWATIKGSDETWQAKRVMERVRYLAREFHLEGANRRLEHHHHHH”, for which the protein production entry is on record as “not failed”. Consider “MEKKEMEKLCQRCKQSYTDLSNETSSCRFHPSFFVCRRHDDQKRYYELKPDDPPYAAKFYDCCGAEDPNAPGVKDLACDLSAGYCLEPLLALHTATE”, for which the protein production entry is listed as “failed”. Turning to “MEKLGQFIINHWQLWLAFVVVVFLIFINEILSQRKKAKEVSPQSLVDLMNNGNAIVIDIRDKESFKNGHIINSMNVNPDDFEQQKMSKYKDKPIILVCARGLQSPTLAMKIRNQGYQPLVLSGGIQAWQNADLPLVKGK”, the protein production result is listed as “failed”. For “MEKNLLRSALKIFEKKDLSLLAYSGRSIFESKDSGLKPVVELFKRFDNLEGSLVIDKMVGKAAASFLLKMKPDHIHAKVISKPALKLMNEYGQSFSYDEKIPFVLGKDGKSMCPFEKLVLEMDDPEEIIRIVLSKFTSL” the value was “not failed”; for “MEKVVTLNHDLPLLHFPNSRKPFSIPSPILRISSFKRHKKRSCLASSSRLGFYTETKTVSESHGVIVDNSTIGRRLLGLAAAVSVAVSLSIFCDSPALAESLTIAFPVSRAREVIETMVEMFPLRSADAAYGKLKAMLSTLGDPFTRLITPKEYQSFRIGSDGNLQGVGLFINSEPRTGHLVSDQTHLETQISLVFGLFVHFLSMNPADRAGIHEGEELVEINGEKLDDVDSEAAAQKLRGRVGTFVTIKLKNVLFGTDSGIREVTVTAVSVRCVKLPRDYIKLSPISSAIIPHTTPDGRLAKTGYVKLTAFSQTAASDMENAVHEMENQDVQSYILDLRNNPLLAIPYQGGLVRAGLDVAQLWLDGDETLVYTIDREGVTSPINMINGHAVTHDPLVVLVNEGSASASEILAGALHDNGRAILVGNRTFGKGKIQSITELNDGSALFVTVAKYLSPSLHEIDQVGIAPDVQCTTGMIDSLTAEIVEKMNSSVPLLEADSCVMVAEHELEARRSNGTAS”, “failed”.

On to “MELFEFLLIKYGYIALILILTGGIVGLPIPDEVLLTLVGYYISLGKMSYVLALLASFLGATLGISISYFLGTKLGLPFLMKYGPKFHISHQKIDHAQALFRKYGPILLFIGYFLPGVRHVTGYLSGLSKCKFRTFSLYAYTGAFIWCLVFITLGHEIGNKWYIVEKYLFKSSFLLFLLILCVIGYFIVRNKRMEKNAEKK”, for which the protein production entry was “failed”.

On to “MELFGSFAFFGGALFGGLGLLLYRALGLPWRLGYRHLIGALCLAVWLAVFWTRPYQPLGLLAVASAALWAMRRGYLPTWAAVLLTMAPLLLLKCGITTMTGMLGLSFATFRAVDVLLFAPRNERISPLDYCIYLFFPLTLLAGPMYRWRNFQADLKRGYEGVTLETWLAGLELLIFGVIQKFGVAEAIWRYGLNTLDAHDYSLTGVALNASLYSFYLFFDFAGYSSMAIGVGMLFGFTLPVNFRNPLASANPQDFWRRWHISLSEWLRDVVFMPIYKALSKTAFFGRHRLAAQNIGILATLLAMGVWNGLALHYVVSGLMFGAYSVGHNLLVQHARTRPALQAFLARRPVQWAGRALTLILAALALYVFSGRSPI”, for which the protein production entry is listed as “failed”.

For “MELIVPILAAAYLAVLLVKTAAALWVVRGERLRPARSAVATPADVAILQPILGGDAHLQEVLAANVQALPQAQFIWLLDTDDGPGNAAADAVVAQYPQLRIARMLVPPAPPGINPKAWKLDYALPHIDAPVSLILDDDAHLGDRALSQLLLDLAHADVVTALPYYRDSATLAGRLLAQFVNNNAALTYLGWLPFAAPLTINGMCYAARTEQLRRWGGFTALLEQLTDDLAFATLVRDRGGRLWQSTAPVAMRTDMPDLRGYVRQMHRWMLFASILLGRQRLRVRSAIGVLQGLPPVLLLAMLVCACVQHTWPAALCVLIVLLARALLLCGVQWRVTGAVRHRLLLSLCAECLQPLHLLHAALVRTIRWRTRRYRVLPDGCFRAE”, the protein production result is recorded as “failed”. With “MELLCIDYLGKPLRLEGTMAGWQQLFWDNILVAQRPAQEQYEGDIQHHFQLTQGEHVLECCLEIALTWQPFQLQYQTKLNGELVAQGMRSEKDVERQTPYEAPKVERRFSVIGLVSLAMKALKSAKMIKVVMASASLAAYSWLFSFQFALALIGCLVFHEYGHVRAMKYFGMKTKGIYLVPFLGGLALSDEKINTRWQDVVISIMGPCFGFLLSLLLVGVYWVTDSPFWAALAVFNAFLNLFNLLPVLPLDGGHILKSVSFSMNSKMGVILCVLAILGGIALSYSLGLTLFGFLLLMGALDIVFEWRQRHHSHLLPLNRYAQMVSTIWYFALVSGLIAIIIGFASTGDTLLSLPLLILGT”, the protein production result is recorded as “failed”.
